{"source": "patent US10494657B2", "about": "“In vitro production of cyclic peptides” (The University Court of the University of Aberdeen, priority 2012, dated 2019)", "molecules": {"B1": {"name": "PatGmac: macrocyclase domain of PatG, residues 492-851 (protein)", "chain": "GEDEIESAGVSASEVESSATKQKVALHPHDLDERIPGLADLHNQTLGDPQITIVIIDGDPDYTLSCFEGAEVSKVFPYWHEPAEPITPEDYAAFQSIRDQGLKGKEKEEALEAVIPDTKDRIVLNDHACHVTSTIVGQEHSPVFGIAPNCRVINMPQDAVIRGNYDDVMSPLNLARAIDLALELGANIIHCAFCRPTQTSEGEEILVQAIKKCQDNNVLIVSPTGNNSNESWCLPAVLPGTLAVGAAKVDGTPCHFSNWGGNNTKEGILAPGEEILGAQPCTEEPVRLTGTSMAAPVMTGISALLMSLQVQQGKPVDAEAVRTALLKTAIPCDPEVVEEPERCLRGFVNIPGAMKVLFGQ"}}, "key": {"[…] [1]": {"tested_on": "[…]", "settings": "rates reported to date; cited from earlier work"}, "[…] [2]": {"tested_on": "[…]", "assay": "Macrocyclization reaction rate in different buffers (LC-MS)", "format": "biochemical", "description": "(§1) For other macrocyclization reactions, 100 μM peptide (e.g. VGAGIGFPAYDG (SEQ ID NO: 68), VGAGIGFPAYRG (SEQ ID NO: 69), or GVAGIGFPAYRG (SEQ ID NO: 84)) was incubated with 20 μM enzyme in a range of buffers for 24 h at 37° C. (see FIGS. 1 to 3).\nPatGmac is a slow enzyme; turnover rates reported to date are ˜1 per day (Lee, J., McIntosh, J., Hathaway, B. J. & Schmidt, E. W., 2009; McIntosh, J. A. et al., 2010). […] Adding DMSO gave a small increase in rate but shifted the optimum pH, thus a buffer containing 500 mM NaCl and 5% DMSO at pH 8 gave a reaction rate over 50 times greater (FIG. 1C). Under these conditions, about 7% linearized VGAGIGFP (SEQ ID NO: 70) byproduct was observed which can be separated from cyclo[VGAGIGFP] (SEQ ID NO: 70) by HPLC."}, "[…] [3]": {"tested_on": "[…]", "assay": "Macrocyclization of substrate with modified recognition sequence (Asp to Arg)", "format": "biochemical", "description": "as §1\nPatGmac K598D produced cyclo[VGAGIGFP] with only 8% linear product, at a rate over an order of magnitude faster than wild-type PatGmac with VGAGIGFPAYDG (SEQ ID NO: 68) (FIGS. 2 and 3)."}, "PatE2/PatE2K": {"tested_on": "PatE2/PatE2K", "assay": "C-terminal cleavage and macrocyclization of heterocyclized, N-terminally cleaved PatE2/PatE2K", "format": "biochemical", "settings": "100 μM substrate, 20 μM PatGmac, 24 hours at 37° C., 20 mM Bicine pH 8.1, 500 mM NaCl, 5% DMSO", "description": "The final stage in patellamide production is C-terminal cleavage and macrocyclization. This step is catalyzed by the PatGmac domain. In order to macrocyclize our single cassette we incubated 100 μM heterocyclized (with either PatD or TruD) and N-terminally cleaved PatE2/PatE2K with 20 μM PatGmac for 24 hours at 37° C. in 20 mM Bicine pH 8.1, 500 mM NaCl, 5% DMSO to complete the reaction. Completeness of the reaction was confirmed by LCT-ESI MS (FIG. 16). […] PatGmac is also highly expressed in E. coli with between 200 and 250 mg purified protein obtained per liter of culture. The final macrocycles were purified by HPLC on a C18 peptide column. PatD and TruD heterocyclised macrocycles were subjected to HRMS and their structures confirmed by fragmentation (see FIGS. 19 to 21; Table 3). NMR analysis was carried out on TruD and PatD heterocyclised macrocycles, as shown in FIGS. 20 and 21) (Tables 7 and 8)."}, "[…] [4]": {"tested_on": "[…]", "assay": "Macrocyclization reaction, final product ratios by LC-ESI MS ion counts", "format": "biochemical", "description": "For macrocyclization reactions comparing final product ratios after substrate depletion, 100 μM peptide (VGAGIGFPAYDG) (SEQ ID NO: 68) was incubated with 50 μM enzyme in 150 mM NaCl, 10 mM HEPES pH 8, 1 mM TCEP for 120 h at 37° C. Samples were analyzed by ESI or MALDI MS (LCT, Micromass or 4800 MALDI TOF/TOF Analyser, ABSciex).\nLC-MS was performed using a Phenomenex Sunfire C18 column (4.6 mm×150 mm). Solvent A was H2O containing 0.1% formic acid and solvent B was MeOH containing 0.1% formic acid. Gradient: 0-2 min 10% B; 2-22 min 10% B to 100% B; 22-27 min 100% B; 27-30 min 100% B to 10% B. High resolution mass spectral data were obtained from a Thermo Instruments MS system (LTQ XL/LTQ Orbitrap Discovery) coupled to a Thermo Instruments HPLC system (Accela PDA detector, Accela PDA autosampler and Accela Pump). The following conditions were used: capillary voltage 45 V, capillary temperature 320° C., auxiliary gas flow rate 10-20 arbitrary units, sheath gas flow rate 40-50 arbitrary units, spray voltage 4.5 kV, mass range 100-2000 amu (maximum resolution 30000).\nThe peptide VGAGIGFPAYDG (SEQ ID NO: 68) was used as a substrate for PatGmac in biochemical assays (FIG. 4C[[c]]). The ratio of macrocyclized to linear product using this substrate peptide was determined by ion counts obtained from liquid chromatography-electrospray ionization mass spectrometry (LC-ESI MS)."}, "[5]": {"settings": "500 mM NaCl and 5% DMSO at pH 8"}, "[6]": {"settings": "100 μM peptide, 50 μM enzyme, 120 h at 37° C."}}, "data": [{"molecule": "B1", "values": [{"measurement": "turnover rate", "setting": "[…] [1]", "result": "~1", "unit": "per day"}, {"measurement": "linearized VGAGIGFP byproduct", "setting": "[…] [2]; [5]", "result": "about 7%"}, {"measurement": "reaction rate increase", "setting": "[…] [2]; [5]", "result": "over 50 times"}, {"measurement": "rate change on increasing sodium chloride", "setting": "[…] [2]; NaCl from 150 mM to 500 mM", "result": "greater than an order of magnitude improvement in rate"}, {"measurement": "rate change on increasing pH", "setting": "[…] [2]; pH from 8 to 9, 500 mM NaCl", "result": "further tripled the rate"}, {"measurement": "ratio of macrocyclized and linear products with VGAGIGFPAYRG", "setting": "[…] [3]", "result": "equal amounts of macrocyclized and linear products"}, {"measurement": "reaction rate with VGAGIGFPAYRG", "setting": "[…] [3]", "result": "reacted extremely slowly"}, {"measurement": "macrocyclized (ion count analysis)", "setting": "PatE2/PatE2K", "result": 100, "unit": "%"}, {"measurement": "product formed (macrocyclized vs linear)", "setting": "[…] [4]", "result": "only macrocyclized product"}, {"measurement": "Cyclic ion count (%) (M + H = 699)", "setting": "[…] [4]; [6]", "result": 100, "unit": "%"}, {"measurement": "Linear ion count (%) (M + H = 717)", "setting": "[…] [4]; [6]", "result": 0, "unit": "%"}, {"measurement": "Unprocessed ion count (%) (M + H = 1123)", "setting": "[…] [4]; [6]", "result": 0, "unit": "%"}]}]}
